According to US20220249633A1:

Each binder was assayed against HLA-A*24 (human) (assay: UV-exchange ELISA, exchange yield grade).

Binder	peptide exchange yield [%]
GYKTFFNEF [… (SEQ ID NO: 188)]	50 to 75
VYQKIILKF [… (SEQ ID NO: 255)]	50 to 75
SYLNHLNNL [… (SEQ ID NO: 199)]	50 to 75
VYLPKIPSW [… (SEQ ID NO: 236)]	50 to 75
LYSELNKWSF [… (SEQ ID NO: 218)]	50 to 75
RYILENHDF [… (SEQ ID NO: 263)]	50 to 75
SYVKVLHHL [… (SEQ ID NO: 241)]	50 to 75
VYKDSIYYI [… (SEQ ID NO: 235)]	50 to 75
AYAQLGYLL [… (SEQ ID NO: 258)]	50 to 75
NYLDVATFL [… (SEQ ID NO: 206)]	> 75
TYTNTLERL [… (SEQ ID NO: 225)]	50 to 75
AFADVSVKF [… (SEQ ID NO: 231)]	> 75
KYIGNLDLL [… (SEQ ID NO: 221)]	> 75
VYQSLSNSL [… (SEQ ID NO: 194)]	50 to 75
VYSSQFETI [… (SEQ ID NO: 262)]	> 75
IYAGVGEFSF [… (SEQ ID NO: 210)]	> 75
KYLESSATF [… (SEQ ID NO: 254)]	50 to 75
LYLENNAQTQF [… (SEQ ID NO: 193)]	50 to 75
RYHPTTCTI [… (SEQ ID NO: 249)]	> 75
LYSELTETL [… (SEQ ID NO: 190)]	50 to 75
KYLMELTLI [… (SEQ ID NO: 214)]	50 to 75
IFIDNSTQPLHF [… (SEQ ID NO: 257)]	50 to 75
VYPVVLNQI [… (SEQ ID NO: 205)]	50 to 75
AYIKGGWIL [… (SEQ ID NO: 195)]	50 to 75
TFITQSPLL [… (SEQ ID NO: 223)]	> 75

Binder	peptide exchange yield [%]
RYVEGIVSL [… (SEQ ID NO: 202)]	50 to 75
SYLNEAFSF [… (SEQ ID NO: 265)]	> 75
SYAPPSEDLF [… (SEQ ID NO: 212)]	20 to 49
PYFFANQEF [… (SEQ ID NO: 224)]	50 to 75
LYSDAFKFIVF [… (SEQ ID NO: 207)]	50 to 75
IYGFFNENF [… (SEQ ID NO: 253)]	50 to 75
LYPQLFVVL [… (SEQ ID NO: 245)]	50 to 75
IFTDIFHYL [… (SEQ ID NO: 197)]	> 75
AFIETPIPLF [… (SEQ ID NO: 209)]	> 75
KYVGQLAVL [… (SEQ ID NO: 237)]	50 to 75
QYLTAAALHNL [… (SEQ ID NO: 233)]	50 to 75
TYLEKIDGF [… (SEQ ID NO: 208)]	> 75
FYVNVKEQF [… (SEQ ID NO: 216)]	50 to 75
VYGEPRELL [… (SEQ ID NO: 242)]	50 to 75
GYIRGSWQF [… (SEQ ID NO: 196)]	> 75
SYSEIKDFL [… (SEQ ID NO: 220)]	> 75
EYLSTCSKL [… (SEQ ID NO: 204)]	50 to 75
GYIKLINFI [… (SEQ ID NO: 261)]	> 75
TYPDGTYTGRIF [… (SEQ ID NO: 191)]	50 to 75
SYLELANTL [… (SEQ ID NO: 243)]	50 to 75
MYLKLVQLF [… (SEQ ID NO: 226)]	20 to 49
DYVGFTLKI [… (SEQ ID NO: 198)]	20 to 49
VFGKSAYLF [… (SEQ ID NO: 256)]	50 to 75
KYPDIASPTF [… (SEQ ID NO: 250)]	20 to 49
TYGMVMVTF [… (SEQ ID NO: 230)]	50 to 75

Binder	peptide exchange yield [%]
AFPTFSVQL [… (SEQ ID NO: 248)]	> 75
IYQFVADSF [… (SEQ ID NO: 229)]	50 to 75
VYMNVMTRL [… (SEQ ID NO: 260)]	> 75
LYTETRLQF [… (SEQ ID NO: 264)]	> 75
VHFEDTGKTLLF [… (SEQ ID NO: 244)]	50 to 75
VYAIFRILL [… (SEQ ID NO: 239)]	50 to 75
VFKSEGAYF [… (SEQ ID NO: 211)]	> 75
VYTKALSSL [… (SEQ ID NO: 251)]	50 to 75
IYQYVADNF [… (SEQ ID NO: 228)]	50 to 75
SYLPAIWLL [… (SEQ ID NO: 234)]	50 to 75
KYLSVQLTL [… (SEQ ID NO: 246)]	20 to 49
IYISNSIYF [… (SEQ ID NO: 217)]	> 75
YFIKSPPSQLF [… (SEQ ID NO: 259)]	20 to 49
YYFFVQEKI [… (SEQ ID NO: 240)]	50 to 75
SYLKAVFNL [… (SEQ ID NO: 219)]	50 to 75
IYRFITERF [… (SEQ ID NO: 227)]	50 to 75
RYSTFSEIF [… (SEQ ID NO: 192)]	50 to 75
SYAPPSEDLFL [… (SEQ ID NO: 213)]	20 to 49
GYNPNRVFF [… (SEQ ID NO: 201)]	50 to 75
VFIHHLPQF [… (SEQ ID NO: 200)]	50 to 75
SFTKTSPNF [… (SEQ ID NO: 247)]	50 to 75
YYLSDSPLL [… (SEQ ID NO: 232)]	50 to 75
AYAANVHYL [… (SEQ ID NO: 187)]	> 75
AFGQETNVPLNNF [… (SEQ ID NO: 252)]	> 75
SYVASFFLL [… (SEQ ID NO: 215)]	20 to 49
